T1: human PAC1 receptor (human, UniProt P41586 24-468)
T1 sequence: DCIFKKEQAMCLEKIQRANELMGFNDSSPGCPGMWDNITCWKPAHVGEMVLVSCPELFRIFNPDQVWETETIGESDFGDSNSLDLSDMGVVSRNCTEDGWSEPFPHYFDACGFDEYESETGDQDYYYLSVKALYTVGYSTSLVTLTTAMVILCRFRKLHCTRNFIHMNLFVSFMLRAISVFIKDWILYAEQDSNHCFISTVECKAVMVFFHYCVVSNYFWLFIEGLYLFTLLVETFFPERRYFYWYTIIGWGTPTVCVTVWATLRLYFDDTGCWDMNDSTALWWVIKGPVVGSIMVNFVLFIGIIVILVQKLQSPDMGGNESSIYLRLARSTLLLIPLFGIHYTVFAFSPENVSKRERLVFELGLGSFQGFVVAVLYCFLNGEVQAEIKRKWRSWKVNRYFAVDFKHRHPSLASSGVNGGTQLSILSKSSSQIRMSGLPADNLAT


Columns and labels:
[1] = biological target: T1, human PAC1 receptor; assay: cell-based or functional assay
[2] = biological target: human CGRP receptor (human, UniProt Q16602 23-461; O60894 27-148); assay: cell-based or functional assay
Chain of human CGRP receptor (Q16602 23-461 limits assumed, chain 1 of 2): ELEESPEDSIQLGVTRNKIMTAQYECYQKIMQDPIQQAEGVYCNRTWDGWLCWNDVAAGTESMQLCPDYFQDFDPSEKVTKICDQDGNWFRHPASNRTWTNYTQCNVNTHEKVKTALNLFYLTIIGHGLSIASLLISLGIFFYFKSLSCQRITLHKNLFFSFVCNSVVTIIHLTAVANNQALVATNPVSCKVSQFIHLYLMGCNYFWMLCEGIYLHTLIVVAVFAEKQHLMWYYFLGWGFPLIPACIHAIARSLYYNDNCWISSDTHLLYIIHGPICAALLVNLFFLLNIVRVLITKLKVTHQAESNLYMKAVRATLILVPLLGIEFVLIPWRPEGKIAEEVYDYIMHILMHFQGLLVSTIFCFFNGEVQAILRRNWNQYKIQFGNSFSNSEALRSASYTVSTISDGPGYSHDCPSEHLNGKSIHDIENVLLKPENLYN
Chain of human CGRP receptor (O60894 27-148 limits assumed, chain 2 of 2): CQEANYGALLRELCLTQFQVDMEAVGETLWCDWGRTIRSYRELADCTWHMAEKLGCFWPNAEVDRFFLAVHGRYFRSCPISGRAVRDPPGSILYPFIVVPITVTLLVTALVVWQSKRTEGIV

| Binder | Fold-improvement over 29G4v22 Ab [1] [fold] | IC50 [1] [nM] | Fold-improvement over 4E4 Ab [2] [fold] | IC50 [2] [nM] |
| --- | --- | --- | --- | --- |
| iPS:454741 (bispecific antibody, human IgG1, kappa, lambda, N297G) light 1: QSVLTQPPSVSAAPGQKVTISCSGSYSNIGRYSVSWYQQLPGTAPKLLIYDNNKRPSGIPDRFSGSKSGTSATLGITGLQTGDEADYYCGTWDSRLSAVVFGGGTKLTVLGQPKAAPSVTLFPPSSEELQANKATLVCLISDFYPGAVTVAWKADSSPVKAGVETTTPSKQSNNKYAAKSYLSLTPEQWKSHRSYSCQVTHEGSTVEKTVAPTECS heavy 1: QVQLVESGGGVVQPGRSLRLSCAASGFTFSSFGMHWVRQAPGKGLEWVAVISFDGSIKYSVDSVKGRFTISRDNSKNTLFLQMNSLRAEDTAVYYCARDRLNYYESSGYYHYKYYGMAVWGQGTTVTVSSASTKGPSVFPLAPSSKSTSGGTAALGCLVKDYFPEPVTVSWNSGALTSGVHTFPAVLQSSGLYSLESVVTVPSSSLGTQTYICNVNHKPSNTKVDKKVEPKSCDKTHTCPPCPAPELLGGPSVFLFPPKPKDTLMISRTPEVTCVVVDVSHEDPEVKFNWYVDGVEVHNAKTKPCEEQYGSTYRCVSVLTVLHQDWLNGKEYKCKVSNKALPAPIEKTISKAKGQPREPQVYTLPPSRKKMTKNQVSLTCLVKGFYPSDIAVEWESNGQPENNYKTTPPVLKSDGSFFLYSKLTVDKSRWQQGNVFSCSVMHEALHNHYTQKSLSLSPGK light 2: EIVLTQSPATLSLSPGERATLSCRASKSVGQSLHWYQQKPGQAPRLLIKYASQSLSGIPARFSGSGSGTDFTLTISSLEPEDFAVYYCHQSSRLPFTFGPGTKVDIKRTVAAPSVFIFPPSDEQLKSGTASVVCLLNNFYPREAKVQWKVDNALQSGNSQESVTEQDSKDSTYSLESTLTLSKADYEKHKVYACEVTHQGLSSPVTKSFNRGEC heavy 2: not shown | 4.2 | 1.58 | 0.8 | 0.64 |
| iPS:454743 (bispecific antibody, human IgG1, kappa, lambda, N297G) light 1: QSVLTQPPSVSAAPGQKVTISCSGSYSNIGRYSVSWYQQLPGTAPKLLIYDNNKRPSGIPDRFSGSKSGTSATLGITGLQTGDEADYYCGTWDSRLSAVVFGGGTKLTVLGQPKAAPSVTLFPPSSEELQANKATLVCLISDFYPGAVTVAWKADSSPVKAGVETTTPSKQSNNKYAAKSYLSLTPEQWKSHRSYSCQVTHEGSTVEKTVAPTECS heavy 1: QVQLVESGGGVVQPGRSLRLSCAASGFTFSSFGMHWVRQAPGKGLEWVAVISFDGSIKYSVDSVKGRFTISRDNSKNTLFLQMNSLRAEDTAVYYCARDRLNYYESSGYYHYKYYGMAVWGQGTTVTVSSASTKGPSVFPLAPSSKSTSGGTAALGCLVKDYFPEPVTVSWNSGALTSGVHTFPAVLQSSGLYSLESVVTVPSSSLGTQTYICNVNHKPSNTKVDKKVEPKSCDKTHTCPPCPAPELLGGPSVFLFPPKPKDTLMISRTPEVTCVVVDVSHEDPEVKFNWYVDGVEVHNAKTKPCEEQYGSTYRCVSVLTVLHQDWLNGKEYKCKVSNKALPAPIEKTISKAKGQPREPQVYTLPPSRKKMTKNQVSLTCLVKGFYPSDIAVEWESNGQPENNYKTTPPVLKSDGSFFLYSKLTVDKSRWQQGNVFSCSVMHEALHNHYTQKSLSLSPGK light 2: EIVLTQSPATLSLSPGERATLSCRASKSVGQSLHWYQQKPGQAPRLLIKYASQSLSGIPARFSGSGSGTDFTLTISSLEPEDFAVYYCHQSSRLPFTFGPGTKVDIKRTVAAPSVFIFPPSDEQLKSGTASVVCLLNNFYPREAKVQWKVDNALQSGNSQESVTEQDSKDSTYSLESTLTLSKADYEKHKVYACEVTHQGLSSPVTKSFNRGEC heavy 2: not shown | 3.8 | 1.66 | 1.1 | 0.52 |
